Reference: ChEMBL document CHEMBL2074044, “Two distinct mechanisms for bilirubin glucuronide transport by rat bile canalicular membrane vesicles. Demonstration of defective ATP-dependent transport in rats (TR-) with inherited conjugated hyperbilirubinemia” (J Clin Invest, 1992)

Substrate: C=CC1=C(C)/C(=C/c2[nH]c(Cc3[nH]c(/C=C4\NC(=O)C(C)=C4C=C)c(C)c3CCC(=O)O[C@@H]3O[C@@H](C(=O)O)[C@H](O)[C@@H](O)[C@@H]3O)c(CCC(=O)O[C@@H]3O[C@H](C(=O)O)[C@H](O)[C@H](O)[C@@H]3O)c2C)NC1=O
Experiment: TP_TRANSPORTER: uptake in bile canalicular membranes from Wistar rat
Format: functional, cell membranes, Bile canalicular membrane

B1: ATP-binding cassette sub-family C member 2 (Rattus norvegicus) (protein)
chain: MDKFCNSTFWDLSLLESPEADLPLCFEQTVLVWIPLGFLWLLAPWQLYSVYRSRTKRSSITKFYLAKQVFVVFLLILAAIDLSLALTEDTGQATVPPVRYTNPILYLCTWLLVLAVQHSRQWCVRKNSWFLSLFWILSVLCGVFQFQTLIRALLKDSKSNMAYSYLFFVSYGFQIVLLILTAFSGPSDSTQTPSVTASFLSSITFSWYDRTVLKGYKHPLTLEDVWDIDEGFKTRSVTSKFEAAMTKDLQKARQAFQRRLQKSQRKPEATLHGLNKKQSQSQDVLVLEEAKKKSEKTTKDYPKSWLIKSLFKTFHVVILKSFILKLIHDLLVFLNPQLLKLLIGFVKSSNSYVWFGYICAILMFAVTLIQSFCLQSYFQHCFVLGMCVRTTVMSSIYKKALTLSNLARKQYTIGETVNLMSVDSQKLMDATNYMQLVWSSVIQITLSIFFLWRELGPSILAGVGVMVLLIPVNGVLATKIRNIQVQNMKNKDKRLKIMNEILSGIKILKYFAWEPSFQEQVQGIRKKELKNLLRFGQLQSLLIFILQITPILVSVVTFSVYVLVDSANVLNAEKAFTSITLFNILRFPLSMLPMVTSSILQASVSVDRLERYLGGDDLDTSAIRRVSNFDKAVKFSEASFTWDPDLEATIQDVNLDIKPGQLVAVVGTVGSGKSSLVSAMLGEMENVHGHITIQGSTAYVPQQSWIQNGTIKDNILFGSEYNEKKYQQVLKACALLPDLEILPGGDMAEIGEKGINLSGGQKQRVSLARAAYQDADIYILDDPLSAVDAHVGKHIFNKVVGPNGLLAGKTRIFVTHGIHFLPQVDEIVVLGKGTILEKGSYRDLLDKKGVFARNWKTFMKHSGPEGEATVNNDSEAEDDDDGLIPTMEEIPEDAASLAMRRENSLRRTLSRSSRSSSRRGKSLKNSLKIKNVNVLKEKEKEVEGQKLIKKEFVETGKVKFSIYLKYLQAVGWWSILFIILFYGLNNVAFIGSNLWLSAWTSDSDNLNGTNNSSSHRDMRIGVFGALGLAQGICLLISTLWSIYACRNASKALHGQLLTNILRAPMRFFDTTPTGRIVNRFSGDISTVDDLLPQTLRSWMMCFFGIAGTLVMICMATPVFAIIIIPLSILYISVQVFYVATSRQLRRLDSVTKSPIYSHFSETVTGLPIIRAFEHQQRFLAWNEKQIDINQKCVFSWITSNRWLAIRLELVGNLVVFCSALLLVIYRKTLTGDVVGFVLSNALNITQTLNWLVRMTSEAETNIVAVERISEYINVENEAPWVTDKRPPADWPRHGEIQFNNYQVRYRPELDLVLKGITCNIKSGEKVGVVGRTGAGKSSLTNCLFRILESAGGQIIIDGIDVASIGLHDLRERLTIIPQDPILFSGSLRMNLDPFNKYSDEEVWRALELAHLRSFVSGLQLGLLSEVTEGGDNLSIGQRQLLCLGRAVLRKSKILVLDEATAAVDLETDSLIQTTIRKEFSQCTVITIAHRLHTIMDSDKIMVLDNGKIVEYGSPEELLSNRGSFYLMAKEAGIENVNHTEL
  Km: 71 µM
